± gives the uncertainty stated by the source.
Test: self-splicing fitness, log relative to wild type (ln ratio); higher = more splicing; Tetrahymena group I intron in knt gene, E. coli kanamycin selection, DiMSum; sequences stand for … in CUCUCU…GGAGGGAAAAGUUAUCAGGCAUGCACCUGGUAGCUAGUCUUUAAACCAAUAGAUUGCAUCGGUUUAAAAGGCAAGACCGUCAAAUUGCGGGAAAGGGGUCAACAGCCGUUCAGUACCAAGUCUCAGGGGAAACUUUGAGAUGGCCUUGCAAAGGGUAUGGUAAUAAGCUGACGGACAUGGUCCUAACCACGCAGCCAAGUCCUAAGUCAACAGAUCUUCUGUUGAUAUGGAUGCAGUUCACAGACUAAAUGUCGGUCGGGGAAGAUGUAUUCUUCUCAUAAGAUAUAGUCGGACCUCUCCUUAAUGGGAGCUAGCGGAUGAAGUGAUGCAACACUGGAGCCGCUGGGAACUAAUUUGUAUGCGAAAGUAUAUUGAUUAGUUUUGGAGUACUCGUGGUCG
Procedure, shortened: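 Fitness was computed with DiMSum as the error-weighted combination of replicate fold changes, kanamycin versus none, each normalised to wild type. The library randomised all eight intron nucleotides of the P1ex region, with the intron placed in the knt kanamycin-resistance gene on pET-22b(+) in E. coli BL21(DE3). Six replicate transformations were grown overnight at 37°C or 30°C on LB agar with or without 25 μg/mL kanamycin, plus 100 μg/mL carbenicillin, 50 μM IPTG and 0.2% rhamnose. Pooled colonies were amplicon-sequenced on an Illumina HiSeq 2500.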

| Sequence | self-splicing fitness (ln) (30 °C) | self-splicing fitness (ln) (37 °C) |
| --- | --- | --- |
| AAAAAGCAAUAUUACGAAGA | -1.96 ± 0.14 | -1.56 ± 0.15 |
| AAAAAGCAAUAUUACGAAGG | -3.57 ± 0.23 | -1.89 ± 0.23 |
| AAAAAGCAAUAUUACGAAUC | -2.31 ± 0.21 | -2.21 ± 0.23 |
| AAAAAGCAAUAUUACGACAC | -0.799 ± 0.094 | -0.575 ± 0.13 |
| AAAAAGCAAUAUUACGACCA | -0.0993 ± 0.079 | -0.734 ± 0.09 |
| AAAAAGCAAUAUUACGAGAG | -2.88 ± 0.11 | -1.95 ± 0.1 |
| AAAAAGCAAUAUUACGAGCU | -0.615 ± 0.092 | -0.172 ± 0.13 |
| AAAAAGCAAUAUUACGAUCU | 0.127 ± 0.055 | 0.246 ± 0.075 |
| AAAAAGCAAUAUUACGCAAG | -1.78 ± 0.097 | -0.583 ± 0.1 |
| AAAAAGCAAUAUUACGCAAU | -0.871 ± 0.076 | -1.08 ± 0.13 |
| AAAAAGCAAUAUUACGCCGA | -1.19 ± 0.088 | -1.01 ± 0.099 |
| AAAAAGCAAUAUUACGCGAC | -2.77 ± 0.18 | -1.23 ± 0.12 |
| AAAAAGCAAUAUUACGCGCC | -0.44 ± 0.095 | -0.59 ± 0.13 |
| AAAAAGCAAUAUUACGCUAC | -3.43 ± 0.18 | -3.23 ± 0.24 |
| AAAAAGCAAUAUUACGGAUU | -0.657 ± 0.068 | -0.635 ± 0.096 |
| AAAAAGCAAUAUUACGGCCC | -0.786 ± 0.22 | 0.00498 ± 0.23 |
| AAAAAGCAAUAUUACGGCUC | -0.28 ± 0.076 | 0.157 ± 0.098 |
| AAAAAGCAAUAUUACGGCUU | -0.00557 ± 0.049 | 0.259 ± 0.066 |
| AAAAAGCAAUAUUACGGGAA | -2.09 ± 0.13 | -1.82 ± 0.13 |
| AAAAAGCAAUAUUACGGGAU | -1.62 ± 0.075 | -1.23 ± 0.086 |
| AAAAAGCAAUAUUACGGUGC | -3.45 ± 0.099 | -2.25 ± 0.081 |
| AAAAAGCAAUAUUACGGUGU | -2.13 ± 0.094 | -1.39 ± 0.11 |
| AAAAAGCAAUAUUACGGUUA | 0.0411 ± 0.067 | -0.012 ± 0.079 |
| AAAAAGCAAUAUUACGUCAC | -4.29 ± 0.26 | -1.27 ± 0.16 |
| AAAAAGCAAUAUUACGUCUG | -0.785 ± 0.058 | -0.319 ± 0.072 |
| AAAAAGCAAUAUUACGUGCC | -0.945 ± 0.11 | -1.17 ± 0.12 |

| Sequence | self-splicing fitness (ln) (30 °C) | self-splicing fitness (ln) (37 °C) |
| --- | --- | --- |
| AAAAAGCAAUAUUACGUUCA | -0.237 ± 0.075 | 0.0228 ± 0.089 |
| AAAAAGCAAUAUUACGUUGC | -3.56 ± 0.13 | -2.44 ± 0.14 |
| AAACAGCAAUAUUACGAAUG | -2.81 ± 0.13 | -1.91 ± 0.15 |
| AAACAGCAAUAUUACGACAC | -1.95 ± 0.15 | -0.33 ± 0.15 |
| AAACAGCAAUAUUACGACUA | -0.953 ± 0.074 | 0.0444 ± 0.077 |
| AAACAGCAAUAUUACGAGAU | -3.64 ± 0.2 | -2 ± 0.15 |
| AAACAGCAAUAUUACGAUCG | -2.18 ± 0.11 | -0.0291 ± 0.11 |
| AAACAGCAAUAUUACGAUGU | -1.36 ± 0.088 | -0.715 ± 0.091 |
| AAACAGCAAUAUUACGCAUA | -2 ± 0.096 | -0.419 ± 0.073 |
| AAACAGCAAUAUUACGCCAC |  | -1.77 ± 0.31 |
| AAACAGCAAUAUUACGCGUA | -1.64 ± 0.093 | -0.734 ± 0.083 |
| AAACAGCAAUAUUACGGACG | -2.25 ± 0.087 | -0.676 ± 0.097 |
| AAACAGCAAUAUUACGGCGC | -1.43 ± 0.11 | -0.594 ± 0.16 |
| AAACAGCAAUAUUACGGGUC | -3.47 ± 0.16 | -3.08 ± 0.22 |
| AAACAGCAAUAUUACGGUGU | -2.42 ± 0.06 | -1.4 ± 0.071 |
| AAACAGCAAUAUUACGUCCG | -1.89 ± 0.082 | -0.645 ± 0.1 |
| AAACAGCAAUAUUACGUCUG | -2.28 ± 0.084 | -1.17 ± 0.095 |
| AAACAGCAAUAUUACGUUAG | -3.45 ± 0.14 | -1.72 ± 0.12 |
| AAACAGCAAUAUUACGUUCA | -0.713 ± 0.045 | -0.557 ± 0.063 |
| AAAGAGCAAUAUUACGAAAA |  | -0.77 ± 0.4 |
| AAAGAGCAAUAUUACGAAUU | -1.32 ± 0.22 | -2.28 ± 0.31 |
| AAAGAGCAAUAUUACGAUAU | -3.17 ± 0.23 | -1.97 ± 0.16 |
| AAAGAGCAAUAUUACGCAAA | -3.16 ± 0.43 | -2.75 ± 0.34 |
| AAAGAGCAAUAUUACGCAUA | -2.55 ± 0.23 | -1.42 ± 0.22 |
| AAAGAGCAAUAUUACGCCCU | -2.57 ± 0.21 | -0.718 ± 0.17 |
| AAAGAGCAAUAUUACGCUCU |  | -2.45 ± 0.49 |

| Sequence | self-splicing fitness (ln) (30 °C) | self-splicing fitness (ln) (37 °C) |
| --- | --- | --- |
| AAAGAGCAAUAUUACGCUUC | -2.33 ± 0.29 | -3.01 ± 0.43 |
| AAAGAGCAAUAUUACGGCGC | -2.27 ± 0.2 | -0.545 ± 0.21 |
| AAAGAGCAAUAUUACGGCGG | -3.05 ± 0.19 | -2.21 ± 0.24 |
| AAAGAGCAAUAUUACGGGCU | -3.06 ± 0.17 | -3.58 ± 0.34 |
| AAAGAGCAAUAUUACGGGGC | -4.4 ± 0.42 | -2.79 ± 0.36 |
| AAAGAGCAAUAUUACGUAUC |  | -1.57 ± 0.27 |
| AAAGAGCAAUAUUACGUCCG | -3.14 ± 0.21 | -1.86 ± 0.35 |
| AAAGAGCAAUAUUACGUCCU | -1.93 ± 0.13 | -0.831 ± 0.12 |
| AAAGAGCAAUAUUACGUGUG | -3.84 ± 0.18 | -2.57 ± 0.19 |
| AAAGAGCAAUAUUACGUGUU | -4.56 ± 0.36 | -2.66 ± 0.24 |
| AAAGAGCAAUAUUACGUUGG | -3.59 ± 0.22 | -2.4 ± 0.25 |
| AAAUAGCAAUAUUACGACCC | -0.239 ± 0.16 | -0.544 ± 0.23 |
| AAAUAGCAAUAUUACGAUCA | -0.673 ± 0.095 | 0.0414 ± 0.089 |
| AAAUAGCAAUAUUACGCAAA | -2.3 ± 0.24 | -1.66 ± 0.21 |
| AAAUAGCAAUAUUACGCAUA | -1.7 ± 0.11 | -0.726 ± 0.11 |
| AAAUAGCAAUAUUACGCCCG | -0.812 ± 0.19 | 0.00909 ± 0.26 |
| AAAUAGCAAUAUUACGCCUG | -0.3 ± 0.08 | -1.03 ± 0.1 |
| AAAUAGCAAUAUUACGGAGC | -3.73 ± 0.3 | -2.26 ± 0.17 |
| AAAUAGCAAUAUUACGGCCG | -0.799 ± 0.23 | 0.0219 ± 0.35 |
| AAAUAGCAAUAUUACGGGAA | -3.24 ± 0.28 | -1.34 ± 0.19 |
| AAAUAGCAAUAUUACGGGAG | -2.29 ± 0.14 | -1.84 ± 0.19 |
| AAAUAGCAAUAUUACGGGUA | -2.15 ± 0.12 | -1.41 ± 0.1 |
| AAAUAGCAAUAUUACGGUGC | -4.05 ± 0.43 | -1.81 ± 0.31 |
| AAAUAGCAAUAUUACGUACU | 0.159 ± 0.063 | 0.295 ± 0.091 |
| AAAUAGCAAUAUUACGUAGC | -3.97 ± 0.33 | -1.9 ± 0.31 |

— the supplement of paper PMC7877785
